One molecule from publication PMC7935953 (2021) can be followed below.

The target in this experiment is His-LC3A (human, UniProt Q9H492 1-121). The experiment in a line: ITC.

Regarding GSGTWTLVDEG [hEPG5-LIR1 peptide], the equilibrium dissociation constant (Kd) is 20.4 µM.

The Kd is the equilibrium constant for the complex coming apart.
